Substrate: CCCOC(=O)c1cc(O)c(O)c(O)c1
Assay: purified protein
Assay type: biochemical, Aspergillus niger
Settings: standard assay condition

B1: rAntan1 (tannase from A. niger FJ0118, Antan1 without signal peptide) (Aspergillus niger CBS 513.88) (protein)
chain: ATPSTLAELCTDSIVKAALPPSEFIQGITIDSDSVTTEVVTNSSVSSEFYPSATINYCNVTFAYSHDGIDGDQVLLEIWLPAPTDFQNRWLSTGGGGYAINSGDQSLPGGVMYGAASGMTDGGFGGFSNNADTAMLLANGTLDYETLYMFAYKAHRELSLIGKALTRNVYGMSDSDKLYAYYQGCSEGGREGWSQVQRFGDEWDGAIIGAPAFRWSFQQTQHLYSNVVEKTLDYYPPPCELDKIVNETIAACDAMDGKVDWVVARTDLCLLDFDISTIEGKPYSCAASRGTPAQNGTVSAKGIEVAKTIINGLHDSQGRRVYFSYQPTAAFDDAETQYNSTTGQWGLDIDQLGGEYIALLVDKNGTTLDSLDGVTYDTLKDWMISGLQEYYSTLQTTWPDLTPFHEAGGKVIHFHGDADFSIPTAASIRYWESVRSIMYPNQDYNSSAEALNEWYRLYTVPGAGHCATNDAMPNGPFPQTNMAVMIDWVENGVVPTTLNATVLQGENEGQNQQLCAWPLRPLWTNNGTTMECVYNQRSIDSWHYDLDAVPMPVY
notes: mature form, predicted 20-residue signal peptide removed; secreted from Pichia pastoris SMD1168 (pPIC9K), DEAE-Sepharose purified; 1725 bp ORF, 575 residues printed
With B1 the Km was 73 µM and the kcat (substrate range printed as 0.05–1.0 M) was 1060 s⁻¹.

Source: publication PMC7070470, “Thermostable Tannase from Aspergillus Niger and Its Application in the Enzymatic Extraction of Green Tea” (Molecules, 2020)
